Measurements published in US20170192009A1.

Experiments:
[1] = target: GFP-hIL6 fusion protein (N-terminal 6x His-tag, mGFP, gs linker, human interleukin-6), purified (human); experiment: flow cytometry of permeabilized E. coli IT cells displaying the binder-mRFP-CBD on inclusion bodies, treated with GFP-IL6; GFP channel
[2] = target: GFP-hIL6 fusion protein (N-terminal 6x His-tag, mGFP, gs linker, human interleukin-6), purified (human); experiment: flow cytometry of permeabilized IT cells treated with GFP-IL6
sfGFP = experiment: flow cytometry of permeabilized IT cells, treated with sfGFP; GFP channel [panel sfGFP]
[3] = target: GFP-hIL6 fusion protein (N-terminal 6x His-tag, mGFP, gs linker, human interleukin-6), purified (human); experiment: flow cytometry of permeabilized IT cells, treated with mGFP-IL6; GFP channel [panel IL-6]

InVLR5c-mRFP-CBD fusion protein (In-VLR5c repebody fused to mRFP and family II CBD, displayed on inclusion bodies in permeabilized E. coli IT cells) (designed binder)
GFP fluorescence value [1]: 17 | GFP fluorescence [2]: 10

negative control (f)
GFP fluorescence value (sfGFP): 15.2 | GFP fluorescence value [3]: 26.2
